# In the Immune Epitope Database (IEDB):
# How the values were obtained:
# Assay in all cases: IEDB peptide-MHC binding, purified MHC/competitive/radioactivity; filed as Kd, often an IC50 or EC50 that approximates it; ≥ and ≤ were set here for values at or beyond the usual limits of such assays
# [1] = target: HLA-A*68:01
# [2] = target: HLA-A*31:01
# [3] = target: HLA-A*11:01
# [4] = target: HLA-A*03:01
# [5] = target: HLA-A*33:01
# [6] = source organism: Vaccinia virus Copenhagen
# [7] = source organism: Vaccinia virus WR
# [8] = source organism: Dengue virus 3 Martinique/1243/1999
# [9] = source organism: Dengue virus 1 Brazil/97-11/1997
# [10] = source organism: SARS coronavirus Tor2
# [11] = source organism: Mammarenavirus brazilense
# [12] = source organism: Dengue virus 4 Philippines/H241/1956
# [13] = source organism: Mammarenavirus juninense
# [14] = source organism: Dengue virus 1 Singapore/S275/1990
# [15] = source organism: Dengue virus 2 Jamaica/1409/1983
# [16] = source organism: Mammarenavirus guanaritoense
# [17] = source organism: Mammarenavirus machupoense
# [18] = source organism: Dengue virus 1 Nauru/West Pac/1974
Sequence,"Kd [1, 7]","Kd [2, 7]","Kd [3, 7]","Kd [4, 7]","Kd [5, 7]",further results
GLACYRFVK,,,,,,"Kd [1, 6]: 0.703 µM; Kd [2, 6]: 0.217 µM; Kd [3, 6]: 0.024 µM; Kd [4, 6]: 0.0222 µM; Kd [5, 6]: 1.83 µM"
LLSINSSFY,3.46 µM,2.39 µM,0.479 µM,0.986 µM,6.34 µM,
VTDLENRLKK,≥ 31.7 µM,≥ 37.7 µM,0.0145 µM,0.291 µM,≥ 70 µM,
KVLAARLKR,0.00607 µM,0.663 µM,0.158 µM,0.633 µM,18.8 µM,
NIPTAIQQVR,,,,,,"Kd [1, 8]: 0.0724 µM"
WSYYCAGLK,,,,,,"Kd [4, 9]: 0.0122 µM"
RSTIFDIVSK,0.0792 µM,0.222 µM,0.00197 µM,0.0813 µM,6.5 µM,
MLPPCYNFLK,,,,,,"Kd [1, 10]: 0.00261 µM; Kd [2, 10]: 0.129 µM; Kd [3, 10]: 0.00953 µM; Kd [4, 10]: 0.00677 µM; Kd [5, 10]: 0.138 µM"
CEMNHVNSMH,,,,,,"Kd [1, 11]: ≥ 48.1 µM"
EFWKLVDRER,,,,,,Kd ([5]; source organism: Dengue virus 3 Sri Lanka/1266/2000): 0.00292 µM
YVSAITQAER,,,,,,"Kd [1, 12]: 0.0143 µM; Kd [2, 12]: 0.104 µM"
VSAQNISFK,0.0706 µM,1.57 µM,0.00962 µM,0.0146 µM,≥ 33.9 µM,
TIKYSNDNRY,0.956 µM,≥ 29.9 µM,8.86 µM,≥ 20.6 µM,≥ 70 µM,
TLILSNKLLY,4.33 µM,18 µM,1.01 µM,1.29 µM,18.7 µM,
IIGHIGHHY,≥ 23.1 µM,≥ 77.9 µM,4.62 µM,6.39 µM,≥ 77.7 µM,
NVAYNVVNK,,,,,,"Kd [1, 10]: 0.0308 µM; Kd [2, 10]: 7.17 µM; Kd [3, 10]: 0.121 µM; Kd [4, 10]: 0.469 µM; Kd [5, 10]: 19.3 µM"
RARFIGGYIK,0.0929 µM,0.0594 µM,0.0168 µM,0.629 µM,11.7 µM,
TTEMLSRALK,,,,,,"Kd [1, 10]: 0.0128 µM; Kd [2, 10]: 0.12 µM; Kd [3, 10]: 0.0672 µM; Kd [4, 10]: 0.101 µM; Kd [5, 10]: 3.91 µM"
TMADLVYALR,,,,,,"Kd [1, 10]: 0.0094 µM; Kd [2, 10]: 0.0813 µM; Kd [3, 10]: 0.898 µM; Kd [4, 10]: 2.25 µM; Kd [5, 10]: 0.136 µM"
FIRIIRPDY,3.09 µM,7.05 µM,≥ 56.2 µM,≥ 78 µM,≥ 24.7 µM,
PIYSHTERDK,14 µM,0.977 µM,6.59 µM,0.932 µM,≥ 54.6 µM,
SWPLQCPLDH,,,,,,"Kd [1, 13]: ≥ 70.1 µM; Kd [2, 13]: ≥ 22.8 µM; Kd [3, 13]: ≥ 69.7 µM; Kd [4, 13]: ≥ 70 µM; Kd [5, 13]: ≥ 38.5 µM"

Sequence,"Kd [1, 7]","Kd [2, 7]","Kd [3, 7]","Kd [4, 7]","Kd [5, 7]",further results
EILKINSVKY,3.87 µM,1.04 µM,6.29 µM,6.09 µM,5.17 µM,
TFKIDAVRY,1.9 µM,≥ 34.9 µM,18.9 µM,≥ 78 µM,≥ 77.7 µM,
MVGANASDR,,,,,,"Kd [1, 14]: 0.0455 µM"
EFVMCLEAK,0.267 µM,9.76 µM,0.965 µM,≥ 54.2 µM,0.153 µM,
AANTVIWDY,,,,,,"Kd [1, 10]: 14.2 µM; Kd [2, 10]: ≥ 38.1 µM; Kd [3, 10]: 0.107 µM; Kd [4, 10]: ≥ 78 µM; Kd [5, 10]: ≥ 77.7 µM"
ELYVSSSYK,0.00671 µM,≥ 77.9 µM,0.0124 µM,0.00073 µM,≥ 54.2 µM,
DNQKLSYLK,,,,,,"Kd [1, 11]: 7.48 µM; Kd [2, 11]: 2.65 µM; Kd [4, 11]: ≥ 78 µM; Kd [5, 11]: 8.37 µM"
YFSFKKCLVY,0.578 µM,2.78 µM,0.107 µM,0.033 µM,9.06 µM,
NLTETFRDY,≥ 37.4 µM,≥ 77.9 µM,≥ 77.9 µM,≥ 78 µM,≥ 77.7 µM,
EMGLLETTKR,,,,,,"Kd [5, 8]: 0.0582 µM"
GTILIKVEYK,,,,,,"Kd [1, 8]: 0.0382 µM; Kd [3, 8]: 0.0692 µM"
LTDTEYRAR,≥ 42.6 µM,≥ 77.9 µM,≥ 53.9 µM,≥ 78 µM,≥ 77.7 µM,
IAARGYISTR,,,,,,"Kd [1, 15]: 0.012 µM"
ESNIEIMDK,0.0112 µM,≥ 77.9 µM,10.8 µM,15.5 µM,≥ 77.7 µM,
SILARRPTPK,0.147 µM,0.372 µM,0.00144 µM,0.00108 µM,12.3 µM,
AQQFANVISK,17.6 µM,1.94 µM,0.00268 µM,0.0838 µM,≥ 70 µM,
TTTIFAGHLK,,,,,,"Kd [1, 9]: 0.00888 µM; Kd [3, 9]: 0.0227 µM"
KIKQDVRDK,≥ 24.9 µM,9.94 µM,19.8 µM,0.241 µM,≥ 77.7 µM,
TTLSRTSKK,,,,,,"Kd [1, 15]: 0.302 µM; Kd [3, 15]: 0.158 µM; Kd [4, 15]: 0.0143 µM"
NYKERMVTFK,,,,,,"Kd [5, 12]: 1.4 µM"
TKTAVNMLTH,,,,,,"Kd [1, 16]: 0.87 µM; Kd [2, 16]: 7.55 µM; Kd [5, 16]: ≥ 35.7 µM"
ELAELLEMKY,2.84 µM,≥ 50.8 µM,≥ 29.5 µM,14.2 µM,≥ 70 µM,

Sequence,"Kd [1, 7]","Kd [2, 7]","Kd [3, 7]","Kd [4, 7]","Kd [5, 7]",further results
LLYAAEMVEY,0.00935 µM,0.236 µM,0.000576 µM,0.00393 µM,17.1 µM,
EIKAEMQLK,0.0157 µM,≥ 43.9 µM,1.67 µM,1.02 µM,1.52 µM,
QSVLCVKKFY,5.67 µM,15.6 µM,13.2 µM,1.37 µM,≥ 24.5 µM,
TLLVWHTWQK,,,,,,"Kd [4, 8]: 0.0455 µM"
FVVTLIPLCR,,,,,,"Kd [1, 12]: 0.0031 µM; Kd [5, 12]: 0.0118 µM"
HYIHCFRKPH,,,,,,"Kd [1, 17]: ≥ 70.1 µM; Kd [2, 17]: 0.0898 µM; Kd [3, 17]: ≥ 69.7 µM; Kd [4, 17]: ≥ 70 µM; Kd [5, 17]: 0.589 µM"
GSIKIKQDVR,0.253 µM,0.281 µM,0.611 µM,8.06 µM,2.48 µM,
MFAVGLLFRR,,,,,,"Kd [1, 9]: 0.0618 µM; Kd [2, 9]: 19 µM; Kd [5, 9]: 0.00166 µM"
VTFKNAHAK,,,,,,"Kd [1, 8]: 0.0584 µM; Kd [3, 8]: 0.0584 µM; Kd [4, 8]: 0.00794 µM"
DILTYNKTSK,2.97 µM,≥ 38.1 µM,≥ 21.1 µM,2.32 µM,1.76 µM,
DTRTPKAKR,,,,,,"Kd [5, 14]: 0.0937 µM"
LSFSNTIQSY,4.67 µM,≥ 70 µM,1.37 µM,7.43 µM,≥ 70 µM,
SADNHPKMIK,0.0151 µM,0.0337 µM,0.00204 µM,0.0167 µM,0.144 µM,
YTCEDNTGIK,0.256 µM,≥ 70 µM,1.06 µM,≥ 29.7 µM,≥ 70 µM,
DVHPGEPVVK,0.057 µM,≥ 32 µM,≥ 23.7 µM,15.4 µM,≥ 70 µM,
DAEACYIYK,0.0492 µM,0.208 µM,0.0575 µM,1.35 µM,0.234 µM,
VSDFRDYQSY,≥ 51.2 µM,≥ 70 µM,4.64 µM,≥ 32.2 µM,≥ 70 µM,
DFIRRKYLIY,1.1 µM,≥ 70 µM,≥ 20.2 µM,8.65 µM,10.4 µM,
ETKGVERLKR,,,,,,"Kd [1, 8]: 0.0142 µM; Kd [5, 8]: 0.336 µM"
KTNSTVDVR,0.0199 µM,0.011 µM,0.0881 µM,1.88 µM,13.3 µM,
FLLRHYYNKR,1.85 µM,0.0162 µM,1.13 µM,1.84 µM,0.0174 µM,
ETTMRGAKR,,,,,,"Kd [1, 15]: 0.0358 µM; Kd [5, 15]: 0.117 µM"

Sequence,"Kd [1, 7]","Kd [2, 7]","Kd [3, 7]","Kd [4, 7]","Kd [5, 7]",further results
DGCWYGMEIR,,,,,,"Kd [5, 15]: 0.154 µM"
PFTQHLLNIR,0.224 µM,0.167 µM,2.89 µM,≥ 22.3 µM,6.51 µM,
FLLNISYLCH,,,,,,"Kd [2, 11]: 5.83 µM; Kd [3, 11]: ≥ 46.6 µM; Kd [4, 11]: 11.8 µM; Kd [5, 11]: 0.00532 µM"
GVTLFFLSGR,,,,,,"Kd [2, 18]: ≥ 70 µM; Kd [5, 18]: 0.0562 µM"
SLIKFISDNK,0.0691 µM,2.65 µM,0.0237 µM,0.0149 µM,≥ 70 µM,
RIVTVTTKDY,1.55 µM,18.3 µM,0.6 µM,0.427 µM,≥ 70 µM,
LFFTTTLFLH,,,,,,"Kd [1, 11]: 0.445 µM; Kd [2, 11]: 0.232 µM; Kd [3, 11]: 4.12 µM; Kd [4, 11]: 0.771 µM; Kd [5, 11]: 0.191 µM"
NMKQCTNDIY,2.78 µM,≥ 57.4 µM,16.4 µM,0.211 µM,≥ 65.7 µM,
AISAVYFKAK,2.53 µM,1.64 µM,0.026 µM,0.00804 µM,≥ 70 µM,
VAAEMEEALR,,,,,,"Kd [1, 15]: 0.128 µM"
FMRFFQLLR,0.0117 µM,0.000668 µM,0.354 µM,0.141 µM,0.00197 µM,
SSYSLFDMSK,,,,,,"Kd [1, 10]: 0.0422 µM; Kd [2, 10]: 0.253 µM; Kd [3, 10]: 0.00325 µM; Kd [4, 10]: 0.018 µM; Kd [5, 10]: 10.1 µM"
QQLEDIFMR,5.48 µM,1.19 µM,13.4 µM,2.71 µM,4.07 µM,
QLRSLTEILK,,,,,,Kd ([4]; source organism: Homo sapiens): 0.055 µM
MVLLQMEDK,,,,,,"Kd [3, 15]: 2.01 µM"
ILFEEVMRGK,,,,,,"Kd [4, 8]: 0.00896 µM"
KKKNPRLCTR,,,,,,"Kd [2, 12]: 1.04 µM"
LMIVARHER,,,,,,"Kd [2, 12]: 0.00518 µM; Kd [5, 12]: 0.116 µM"
GQLKLNWFK,,,,,,"Kd [3, 15]: 0.0281 µM"
ALTLHWFRK,,,,,,"Kd [3, 12]: 0.1 µM; Kd [4, 12]: 0.015 µM"
